Source: patent publication US20200318093A1

Assays:
[1] = biological target: casein sodium ("MIPRODAN", Nippon Shinyaku); experiment: cell-based or functional assay
[2] = biological target: bovine-derived alkaline gelatin (Sigma)
[3] = biological target: casein sodium ("MIPRODAN", Nippon Shinyaku)
[4] = biological target: fish-derived gelatin (Nippi)
[5] = biological target: milk whey protein ("BiPro", Davisco)
[6] = biological target: T1, ovalbumin (Sigma), P01012
T1 chain: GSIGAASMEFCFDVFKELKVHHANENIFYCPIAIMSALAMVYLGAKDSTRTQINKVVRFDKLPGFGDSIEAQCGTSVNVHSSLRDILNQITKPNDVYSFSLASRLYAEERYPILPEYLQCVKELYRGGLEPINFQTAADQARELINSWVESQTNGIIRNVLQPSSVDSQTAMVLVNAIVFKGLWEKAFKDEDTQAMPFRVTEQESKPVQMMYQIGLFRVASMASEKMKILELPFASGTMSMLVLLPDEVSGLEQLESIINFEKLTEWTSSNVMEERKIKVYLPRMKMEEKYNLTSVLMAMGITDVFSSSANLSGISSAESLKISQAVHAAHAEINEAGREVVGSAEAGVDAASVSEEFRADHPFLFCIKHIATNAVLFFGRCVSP

[7] = biological target: porcine-derived acidic gelatin (Sigma)
[8] = biological target: skim milk powder (Yotsuba Milk Products, low heat type)
[9] = biological target: casein sodium ("MIPRODAN", Nippon Shinyaku); experiment: cell-based or functional assay; remark: listed apart in the source

protein asparaginase of Leifsonia xyli AJ111071 (NITE P-01649) (enzyme)
released ammonia (3 h reaction with culture supernatant, control subtracted) [1]: 0.289 mM

B1: protein asparaginase of Luteimicrobium album AJ111072 (NITE P-01650) (protein)
chain: AVTADDGSTPGTAAYLEDDYDFGDQAVPLANIGGIRGEMTGRIYLPTTAGAHPTVILLHGRHSSCTVPTGGGSVSNPNRWPCIAPQVNIPSYKGYESTAQNLATHGYAVVSISANAINANDNQLAPDYGAQARGQLVLDTLAMLRKANAGEPVSFHDAATDRTVDLASALAVSTEAEDLGSAPTSATNPGDAITPADLVGAFDLDDVGLMGHSRGGEGVVSAVNLNQKLAKPFGIKSVLPLAPVDFGRETAADTNMLVILPYCDGDVSNQQGQHFSDDSRYAYDDDSLRSTLWVMGADHNFFNSVWTPGKYPLSTSDDWGATSTDAVCGPLAPTNVRLSADDQYDVGVAVMSAWFRLTLGGEDQFLPLFDGSADPTLTSVPSAKLWSTATAPATKRADIEAFTANTSRVRVYGSATESVCASAGGRTLPQDAQPCATASALRSTSAMPHWTPASFAPNVPASPMGRFLWTSVSGSTAGSIRVTVPAAARDASEQDALTFKTAPDESVLTGTDLTVTVVDGHGATWSSAVSALNAGAVKRLPISGSTTLNKIVLQQVSVPVSTLAGSIDVSDVREVRFAGATGADGTATGGAYLSDLAFVSSGVGTVAGIASVPTVNVASTVVEEGSSVDEARVAVVLDQPADRTVSAWFTLMGSTADSSNAGLAAQKVTFQPGQTCQAVTVTILGNTVAGAAATTAYKADVSAPDGVIVGAAQFGTFTVREDDALTSGGALAPAVGTQGDVCAEYAARSVVQELTTSGDAVAGSHVTLTGSGYRVGESVAFTDGDAVLGTVLAGADGTAALDWAVPADARVGGHDVTAVGAGSARTAKATVTVRSATTTTLAIAPAAPAVGKAVTLTATVAGPDTAGTVTFADGSTVLGRVAVKDGRAALVVSGGFDAGTHTLTAAFGQTATAEGSVSPAVTFTLVKGKTTTVFVLAATRTTYGTAVAGRIVVGGADGGVATITVGNVVRSVRLDAHGAGSFTVPGTLKPATYRVTASYAGSRTLDTSSARASLTVLKAAPKVTLSAPATARKGATVTVTVKVVGVKGGVRPTGKAVVKLGGKAVKTVSVPSSGVVKVKVRLASAGTAKVTAAYQGSAYYTAASAAAKVKVKVVTK
Amount of generated ammonia (Rice proteins): 0.04 mM | Amount of generated ammonia (Soybean proteins): 0.98 mM | Amount of generated ammonia [2]: 0.73 mM | Amount of generated ammonia [3]: 2.98 mM | Amount of generated ammonia (cornmeal gluten (Sigma)): 0.41 mM | Amount of generated ammonia [4]: 1.27 mM | Amount of generated ammonia [5]: 1.17 mM | Amount of generated ammonia [6]: 0.01 mM | Amount of generated ammonia [7]: 2.23 mM | Amount of generated ammonia [8]: 1.22 mM | Amount of generated ammonia (α-casein (Sigma)): 4.69 mM | Amount of generated ammonia (α-lactalbumin (Sigma)): 1.84 mM | released ammonia amount (0.68 U/ml enzyme solution) [9]: 1 mM | released ammonia amount (2.7 U/ml enzyme solution) [9]: 1.3 mM

B2: protein asparaginase of Leifsonia xyli AJ111071 (NITE P-01649) (protein)
chain: LPVRRRIALTVAAALIPVVALTTAPAALAAPAPDPVVASGSDWAVTTSPGGYLVTLDLDEPLPMVDDAPTLVVDGEPIGLATESADGLTLGVVTTDPAVASASSVTKGWSSGADDKAAETPEAPATPAVPENTTLTEQLKSFAQLVAVEDPADLGSYTVTEAEYDFGDQAVPLAAIGGIRGELTGKMYLTNATGARPTVVLLHGRHTSCSGTGANPLRWPCGPTQMNIRSYLGYEGTARALASRGYNVLSIAANAVNSNDNQLALDYGAQARGRLVLDTLGMLAKATAGDAVAYDDITTATDTVPSTTTTRTLDEALLRATTRADQPAAASGITAASLKGRFDLGHVGIMGHSRGGEGVVSAATLNQALAKPYGIESVLPLAPVDFGRMTLPDVPTAVFLPYCDGDVSNQQGQHFIDDSRHAFDDDVLRSAVWVMGANHNFFNTVWTPGLYPAATGDDWRTTDTTSTCATTNPTRMTAAQQYQVGVSYMTGFFRLTMGGETRFQSLFDGSVKPSTASTAYADVRTMATQPASKTSLVNDFTETSSLVRVSGGATAAVCTNLTGRTVPQSLPFCATTKASAQVPHWTPGSFAPNVPEFPVTRFLWTGASTTDPAVPSTGELRVTVPAKDRDASRHSQLTLKTAPDEAVQTGTDFRITVVDGAGKTFATTASAVNPLAVNRMPGGTNTTLNKVVLQQLTIPTSTITGIDLTDVREVRLTAAIGADGTGTGGVYLSDLAFDTPSVGTAVAQTRTTVNVAPTTVEEGDGPGTADVAVYLNRAEKSAVTAYVSVIGSATAAVGIGMEKVAFAPGETCKAVTVPTLGNTATSAAPSSAFKVSVTNSTNAVMGASAFANLTVREDDGVTGAAPALAPVGAQGDVCTELAAATTPVPLETSAEDVAPGGSFTLRATGYRAGETVAFRYGATDLGTQVAATDGTASVVVTVPEDADLGPAEATASGSGSGRAATVSVSVLAPTETTVTVTPAKPTAGQ
N-terminus sequence of the insulin B chain after 8 h reaction (protein sequencer) (Insulin B chain (Sigma)): asparagine of the third residue from the N-terminus of the insulin B chain was converted into aspartic acid by deamidation
